From the nanobody polyreactivity screen of Harvey et al. (2022) come the findings set out here.

This data set is described as follows: yeast display, Sf9 membrane polyspecificity reagent, FACS + sequencing; frameworks hold sequencing errors. In outline: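 Genes from sorted yeast were amplified by colony PCR, read by MiSeq 2 × 250 sequencing and filtered on CDR length. These cells carried a synthetic nanobody library in Saccharomyces cerevisiae BJ5465 and were sorted by FACS into low and high (top ~1%) gates on anti-HA and streptavidin fluorescence. Polyreactivity is labelled according to the gate of origin.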
Take “QVQLVESGVGLVQAGGSLRLSCAASGSIFYRNAMVWYRQAHGKERELVAAISGTGGSTYYADSLKGRFTISRDNAKNTVYLQMNSLKPEDTAVYYCASGVTYRHDYWGQGTQVTVSS”: the “polyreactivity (PSR sort gate)” value is “high polyreactivity”.

Take “QVQLVESGAGLVQAGGSLRLSCAASGSIFKYNTMGWYRQAPGKERELVATISGGGRTYYADSVKGRFTISRDNAKNTVYLQMNSLKPEDTAVYYCAARKRGTFTYDYWGQGTQVTVSS”: the “polyreactivity (PSR sort gate)” value is given as “high polyreactivity”. As to “QVQLVESGGGLVQAGGSLRLSCAASGIIFPWYTMGWYRQAPGKERELVAAISSGGRTNYADSVKGRFTISRDNAKYTVYLQMNSLKPEDTAVYYCAAKYYRDRDWGQGTQVTVSS”, the “polyreactivity (PSR sort gate)” value is on record as “high polyreactivity”. In the case of “QVQLVESGGGLVQAGGSLRLSCAASGFTFRYNAMGWYRQAPGKERELVAGISWTSGSTYYADSVKGRFTISRDNAKNTVYLQMNSLKPEDTAVYYCAAYYRRDAALYGYWGQGTQVTVSS” it was “high polyreactivity”; in that of “QVQLVESGGGLVQAGGSLRLSCAASGSILRSNAMGWYRQAPGKERELVATITNSGGSTYADSVKGCFTISRDNANNTVYLQMNSLKPEDTAVYYCAKAGAGESIAKYDYWGQGTQVTVSS”, “low polyreactivity”. In the case of “QVQLVESGGGLVQAGGSLRLSCAASGSTFAKYTMGWYRQAPGKERELVAAISQRGGSTYYADSVKGRFTISRDNAKNTVYLQMNSLKPEDTAVYYCNVRAYAWRYEYWGQGTQVTVSS”, the “polyreactivity (PSR sort gate)” value was “high polyreactivity”. In the case of “QVQLVESGGGLVQAGGSLRLSCAASGSTFPLYAMGRYRQAPGKERELVAAITSGGGNTYYADSLKGRFTISRDNAKNTVYLQMNSLKPEDTAVYYCAAVGGYKSYYSYEYDYWGQGTQVTVSS”, the “polyreactivity (PSR sort gate)” value is on record as “low polyreactivity”.

Take “QVQLVESGGGLVQAGGSLRLSCAASGRTFPVNAMGGYRQAPGKERELVAVINWGGTSTYYADSVKGRFTISRDNAKNTVYLQMNSLKPEDTAVYYCAARARYPGVGYNYWGQGTQVTVSS”: the “polyreactivity (PSR sort gate)” value is recorded as “high polyreactivity”. In the case of “QVQLGESGGGIVQAGGSLRLSCAASAFIIKYYAMGWYRPAPGKETELVAAIDGSSASTYYADSVKGRFTISRDNAKNTVYLQMNSLKPEDTAVYYCAVARLRRGGVQYGYWGQGTQVTVSS”, the “polyreactivity (PSR sort gate)” value is given as “high polyreactivity”.

Turning to “QVQLVESGGGLDQAGGSLRLSCSASGITFKSYAMGWYTQSPGKEREVVAAISRRGGSTYYADSVKGRFTISRDNAKNTVYLQMNSLKQEDTAVYFFAADSGREPKGPSRLTYWGQGTQVTVSS”, the “polyreactivity (PSR sort gate)” value was “high polyreactivity”. With “QVQLVESAGGLVQAGGSLRLICAATGLNLYVYVMGWYRQAPGKERELVAAITWSVSRTYYADSVKGRFTISRDNAKNTVYLQMNSLKPEDTAVYYCAARIPSDGYYYWGQGTQVTVSS”, the “polyreactivity (PSR sort gate)” value was “high polyreactivity”. To “QVQLVESGGGLVPAGGSLRLSCAASGLTFTTYAMGWYRQAPGKERELVAANSNSGATTYYADSVKGRFTISRDNAKNTVYLQMNSLKREETAVYYCAATSYTATWRYYYWGQGTQVTVSS” belongs “high polyreactivity”; to “QVQLVESGGGLVQAGGSLRLSCAASGRTFTSYPMGWYRQAPGKERELVAVITRRGGSTSYADSVKGRFTISRDNAKHTVYLQMNSLKPEDTAVYYCAAKRTWPDVKYIRYGYWGQGTQVTVSS”, “high polyreactivity”; to “QVHLVESGGGLVQAGGSLGISCAASGRILYGYAMGWNRQAPGKERELVAAITATYYADSVKGRFTISRDNAKNSVYLQMNSLNPEDTGVFYCNAYLCPIQPLSPPDPTFEGGYWGQGTQVTVSS”, “low polyreactivity”.

As to “QVQLVESGGGLVQAGGSLRLSCAASGSTVGHYAMGWYRQAPGKERELVAAISVSGGSTYYADSVKGRFTISRDTAKNTVYLQMNSLKPEDTAVYYCAREYAHLSFLSTSSDYWGQGTQVTVSS”, the “polyreactivity (PSR sort gate)” value is reported as “low polyreactivity”.

On to “QVQLVESGGGLVQAGGSLRLSCAASGSIFQFNAMGWYIQAPGKERELVAAISRRTGSTYYADSVKGRFTISRDNAKNTVYLQMNSLKPEDTAVYYCAAKGYGSAPTYRHNYWGQGTQVTISS”, for which the “polyreactivity (PSR sort gate)” value is “high polyreactivity”.

For the sequence “QVQLVESGGGLVQAGGSLRLSCAPSGSIFVVNAMGWFRQAPGKEREFVAAITFGGGTTYYADSVKGRITISRDNAKNTVYLQMYSLKPEDTEVYYCNTRTRGYSSYVGGYNYWGQGTQVTVSS”, the “polyreactivity (PSR sort gate)” value was “low polyreactivity”.

Take “QVQLVESGGGLVQAGGSLRLSCAASGFTFTFYALGWYRQAPGKERELVAAIRTSDGRTYYADSVKGRFTISRDNAKNTVYLQMNSLKPEDTAVYYCNARRYVGYDYWGQGSQVTVSS”: the “polyreactivity (PSR sort gate)” value is on record as “high polyreactivity”. Turning to “QVQLVESGGGLVQAGGSLRLSCAASGRISLRNGMGWYRQAPGKERELVAAISRGGSTYYADSVKGRFTISRDNAKNTVYLHMNSLKPEDTAVYYCNAYIRPIYVDDDYWGQSTQVTVSS”, the “polyreactivity (PSR sort gate)” value is on record as “low polyreactivity”. For the sequence “QVQLEESGGGLVQAGGSLRLTCAASGSTFRYYALGWYRQAPGKERELVAAISGSGGRTYYADSVKGRFTISRDNAKNTVYLQMNSLKPEDTEVYYCNTRGRRTDYDYWGQGTQVTVSS”, the “polyreactivity (PSR sort gate)” value was “high polyreactivity”. In the case of “QFQLVESGGGLVQAGGSLRLSCAASGLIFRIYAMGWYRQAPGKEREFVAAIRWRGGSTYYADSVKGRFTISRDNAKYTVYLQMNSLKPEDTAVYYCAVRSCPYRPRLDYWGQGTQVTVSS” it was “high polyreactivity”; in that of “QVQLVESGGGLVQAGGSLRLSCAASGFIFRRYAMGWYRQAPGKERELVAAITWNGGTTYYADSVKGRFTISRDYAKNTVYLQMNRLKPEDTAVYYCAAASRHTGSYRFYYWGQGTQVTVSS”, “high polyreactivity”. In the case of “QVQLVESGGGLVQAGGSLRLSCAASGSIFFYYAMGWYRQAPGKEREFVAHITSSDASTHYADSVKGRFTISRDNAKNTVYLQMNSLKPEDTAVYYCAADRYPGHRERDYWGQGTQVTVSS” it was “low polyreactivity”; in that of “QVQLVESGGGLVQAGGSLRLSCAASGRILLTYAMGWYRQAPGKERELVAAISSDSRTYYADSVKGRFTISRDNAKNTVYLQMNSLKPEDTAVYYCVRRRYKYDYWGQGTQVTVSS”, “low polyreactivity”; in that of “QVQLVESGGGLVQAGGSRRLSCAASGSTFYGYAMGWYRQAPGKEREFVAAITTSGGSTYYADSVKGRFTISRDNAKNTVYLQMNSLKPEDTAVYYCAADGFYYDDGYWGQGTQVTVSS”, “low polyreactivity”. Consider “QVQLVESGGGLVQAGGSLRLSCAASGSIFLVYAMGWYRQAPGKERELVAASDWSDTDTYYADSVKGRFTISRDNAKNTFYLQMNSLKPEDTAVYYCAADHVGVDFEYWGQGTQVTVSS”, for which the “polyreactivity (PSR sort gate)” value is given as “low polyreactivity”. In the case of “QVQHVESGGGLVQAGGSLRLSCAASGSTFGWYAMGWYRQAPGKERELVAAITRRGTRTYYADSVKGRFTISRDNAKNTVYLQMNSLKPEDTAVYYCNARGFPGKFGYWGQGTQVTVSS” it was “high polyreactivity”; in that of “QVQLVESGGGLVQAGGSLRLSCAASGITFEYYTMGWYRQAPGKERELVAAITSGGSTYYADSVKGRFTISRDNAKNTVYLQMNSLKPEDTAVYYCNADWSATSGEWTWFQYDYWGQGTQVTVSS”, “high polyreactivity”; in that of “QVQLVESGGGLLQAGGSLRLSCAASGSTFYIYSMGCYRQAPGKERELVARISGAGGSTYYSDSVKGRFTISRDNAKNTVYFQMNCLNPEDTAVYYCAAVDIYKYYQYYACPYDSYDYWGQGTQVTVSS”, “low polyreactivity”.

As for “QVQLVESGGGLVQAGGSLRLSCAASGIIFYGNAMGWYRPAPGKERELVAAISWTTDSTYADSVKGRFTISRDNAKNTVYLQMNSLKPEDTAVYYCNARNGSEFLANDLFTHEYDYWGQGTQVTVSS”, the “polyreactivity (PSR sort gate)” value is given as “low polyreactivity”.

“QVQLVESGGGLVQAGGSLRLSCAASGSIFEPYAMGWYRQAPGKERELVAAISSGTSTYYADSVKGRFTISRDNAKNTVYLQLNSLKPEDTAVYYCAAEEQIPWTNNAKYYYWGQGTQVTVSS”: the “polyreactivity (PSR sort gate)” value is listed as “low polyreactivity”. With “QVQLQESGGGLVQAGGTITLGYDMGWYRQAPGKEREFVAGIDTGAITYYADSVKGRFTNSRDNAKNTVYLQMNCLKPEDTAVYYCAAIQTHTYAHSYWGQGNQVTVSS”, the “polyreactivity (PSR sort gate)” value is “high polyreactivity”. To “QVQLVESGGGLVQAGGSLRLSCVASGLTQPYAMGWYRQAPGKERELVAAISSSGGRTSYADSVKGRFTISRDNAKNTVYLQMNSLKPEDTAVYYCNVDLGVNGDYWGQGTQVTVSS” belongs “low polyreactivity”.

For the sequence “QVQLVESGGGLVQAGGSLRLSCAASGLTFRQYAMGWYRQAPGKERELVAAIDTGASTNYADSVKGRFTISRDNAKNTVYLQMNSLKPEDTAGYYCNAELWYGPDELTGDYWGQGTQVTVSS”, the “polyreactivity (PSR sort gate)” value is “low polyreactivity”.

Take “QVQLVESGGGLVQAGGSLRLSCAASGRIFKRNAMGCYRQAPGKERELVATIDWSGGSTYYADSVKGRFTISRDNAKNTVYLQMNSLKPEDTAVYYCAAASGRWNKYGYWGQGTQVTVSS”: the “polyreactivity (PSR sort gate)” value is on record as “low polyreactivity”.

Consider “QVQLVESGGGLVQAGGSLRLSCAASGRISVYNAMGWYRQAPGKERELVAAISRGSTNYADSVKGRFTISRDNAKNTVYLQMNSLKPEDTAVYYCAARSVSFPWRRYAGYDYWGQGTQVTVSS”, for which the “polyreactivity (PSR sort gate)” value is on record as “high polyreactivity”. Turning to “QVQLVESGGGLVQAGGSLRLSCAASGSIFYFNAMGWYRQAPGKERELVARISGSSGRTYFADSVKGRFTISRDNAKNTVYLQMNSLKPEDTAVYYCAARYYTSATMDYWGQGTQVTVSS”, the “polyreactivity (PSR sort gate)” value is given as “high polyreactivity”. Consider “QVQLVESGGGLVQAGGSLRLSCAASGIIFVLYTMGWYIQAPGKERELVATINWGGGNTYYADSVKGRFTISRDNAKNTVYFQMNSLKPEDTAVYYCAAAYTWYGYSQAYYYWGQGTQVTVSS”, for which the “polyreactivity (PSR sort gate)” value is listed as “low polyreactivity”. For “QVQLVESGGGLVQAGGSLRLSCAASGRTFYIYAMGWYRQAPGTERELVAAITWSGGTTYYADSVKGRFTISRDNAKNTVYLQMNSLKPEDTAVYYCAADRYGFYLESYYWGQGTQVTVSS”, the “polyreactivity (PSR sort gate)” value was “low polyreactivity”.

As for “QVQLVESGGGLVQAGGSLRLSCAASGRTFRFYARGWYRQAPGKERELVAAIRNGGRTNYADSVKGRFTISRDNAKISVFLQMNSLKPEDTAVYYCAIQPGISYRHYDYWGQGTQVTVSS”, the “polyreactivity (PSR sort gate)” value is “high polyreactivity”.

For the sequence “QVQLQESGGGLVQAGGSLRLSCAASGTISYPRTMGWYRQAPGKEREFVAGIGVGGTTYYADSVKGRFTISRDNAKYTVYLQMNILKPEDAAVYYCAVAAYYDKYYVYWGQGTQVTVSF”, the “polyreactivity (PSR sort gate)” value is on record as “low polyreactivity”.
